US6025146A, “Identification of M-CSF agonists and antagonists” (Chiron Corporation, priority 1995, dated 2000)
Substitutions are numbered along the chain they refer to. Names and notes keep the numbering of the source. One block for each molecule: values may come before it.

What was measured:
NFS-60 cells [1] = test: Antibody neutralization of M-CSF dimers by 5H410 Mab in the NFS-60 bioassay; assay type: cell-based; settings: serial dilution neutralization experiments
Procedure: Fractionated products were analyzed on reducing SDS-PAGE and stained with Coomassie, according to the method of Laemmli, Nature […] 227:680-685 (1970). Biological activity was determined using the M-CSF dependent NFS-60 bioassay (See Example 10 below). Antibody neutralization experiments were carried out by pre-incubating approximately 5,000 units of M-CSF dimer with varying dilutions of the neutralizing M-CSF 5H410 Mab (made to refolded E. coli CΔ 150 M-CSFα dimer) prior to bioassay. (Halenbeck et al, Bio/Technology 7:710 (1989)
The biological activity of all three dimer species was neutralized to the same extent in serial dilution neutralization experiments using the 5H410 M-CSF Mab in the NFS-60 bioassay.

NFS-60 cells [2] = test: M-CSF dependent NFS-60 bioassay (MTT read-out); assay type: cell-based
Procedure: Fractionated products were analyzed on reducing SDS-PAGE and stained with Coomassie, according to the method of Laemmli, Nature […] 227:680-685 (1970). Biological activity was determined using the M-CSF dependent NFS-60 bioassay (See Example 10 below). […] (Halenbeck et al, Bio/Technology 7:710 (1989)
The purified mutein dimers were subjected to bioassay using NFS-60 cells which is an M-CSF dependent cell line which forms colonies in the presence of active M-CSF. Standards and purified mutein samples were serially diluted 1:2 in RPMI media (10% fetal bovine serum) in a 50 microliter volume in 96-well microtiter plates. […] Plates were incubated at 37° C., 5% CO2 for 44 h. 5 mg/ml MTT dye was added to each sample and incubation continued for 4 h. 20% SDS was added to each sample. The plates were wrapped in foil and left overnight. The absorbance of each sample was read at 570 nm and compared to a standard of known M-CSF concentration.

[3] = tested on: cell surface M-CSF receptor (NFS60 cell M-CSF receptors); test: NFS-60 receptor competition assay: displacement of 125I-M-CSF by radioligand displacement; assay type: binding
Procedure: FIG. 7 illustrates the competitive binding of M-CSF and M-CSF muteins to NFS60 cell M-CSF receptors.
The plates were incubated at 4° C. for 20 hours and the cells were collected on glass-fiber filters. Maximum binding was measured in the absence of unlabeled M-CSF and non-specific binding was measured in the presence of 1000-fold greater concentration of unlabeled M-CSF (compared to labeled M-CSF). […] Results are expressed as percent displacement of radioactive M-CSF versus mutein concentration (FIG. 7).

B1: Chinese hamster ovary cell (CHO)-expressed M-CSF: "naturally refolded" M-CSF expressed in Chinese hamster ovary cells (protein, UniProt P09603 33-554, looked up)
Macrophage colony-stimulating …: EEVSEYCSHMIGSGHLQSLQRLIDSQMETSCQITFEFVDQEQLKDPVCYLKKAFLLVQDIMEDTMRFRDNTPNAIAIVQLQELSLRLKSCFTKDYEEHDKACVRTFYETPLQLLEKVKNVFNETKNLLDKDWNIFSKNCNNSFAECSSQDVVTKPDCNCLYPKAIPSSDPASVSPHQPLAPSMAPVAGLTWEDSEGTEGSSLLPGEQPLHTVDPGSAKQRPPRSTCQSFEPPETPVVKDSTIGGSPQPRPSVGAFNPGMEDILDSAMGTNWVPEEASGEASEIPVPQGTELSPSRPGGGSMQTEPARPSNFLSASSPLPASAKGQQPADVTGTALPRVGPVRPTGQDWNHTPQKTDHPSALLRDPPEPGSPRISSLRPQGLSNPSTLSAQPQLSRSHSSGSVLPLGELEGRRSTRDRRSPAEPEGGPASEGAARPLPRFNSVPLTDTGHERQSEGSFSPQLQESVFHLLVPSVILVLLAVGGLLFYRWRRRSHQEPQRADSPLEQPEGSPLTQDDRQVELPV
neutralization of biological activity by 5H410 M-CSF Mab (NFS-60 cells [1]): neutralizes

fold increase in IC50 / decrease in binding affinity compared to M-CSFα NΔ3CΔ158 ([3]; relative to IC50 of about 17 pM for 158): 5 fold
B2: Q20A, V78K: double mutant of M-CSF altering solvent accessible residues in the central portion of helices A and C (protein, UniProt P09603 33-554, looked up, variant Q20A V78K)
Macrophage colony-stimulating …: B1 Macrophage colony-stimulating … with Q20A, V78K
specific activity (NFS-60 cells [2]; purified refolded dimers, compared to a standard of known M-CSF concentration): 1.4×10^7 U/mg | fold reduction in biological (specific) activity compared to parental M-CSF (NFS-60 cells [2]; relative to parental reference (homodimer or heterodimer)): 8-10 fold | M-CSF receptor-binding ability (in words) [3]: decreased
